The values that follow come from article PMC10120035, “HY5 functions as a systemic signal by integrating BRC1-dependent hormone signaling in tomato bud outgrowth”.

In this data set the target is BRC1 (His-BRC1) (Solanum lycopersicum (tomato), UniProt A0A3Q7HTP5 1-406). The experiment in a line: EMSA; Light Shift Chemiluminescent EMSA kit (Thermo 20148) per manufacturer; buffer, salt, pH and temperature not stated. The settings on record: protein: recombinant; tags: His (pET-32a); chain copies: 2; label: 3' biotin (probe); blunt.
BRC1 (His-BRC1), sequence (A0A3Q7HTP5 entry or part of it): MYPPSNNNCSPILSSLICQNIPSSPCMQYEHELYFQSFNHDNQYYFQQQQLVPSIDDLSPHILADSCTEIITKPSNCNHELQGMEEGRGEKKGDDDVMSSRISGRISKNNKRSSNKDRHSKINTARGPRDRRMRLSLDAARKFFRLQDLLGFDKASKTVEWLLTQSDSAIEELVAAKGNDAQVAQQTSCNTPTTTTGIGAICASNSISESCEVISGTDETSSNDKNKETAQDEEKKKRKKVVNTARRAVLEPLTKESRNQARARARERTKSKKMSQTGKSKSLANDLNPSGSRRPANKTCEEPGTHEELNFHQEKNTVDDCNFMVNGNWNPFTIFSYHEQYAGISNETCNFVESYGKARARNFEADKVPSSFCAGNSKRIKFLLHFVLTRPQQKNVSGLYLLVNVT

B1: GA2ox4-B WT (dsDNA)
DNA 1: TCCCAAATTTTCGAATTATTAGGGGACCATTTTTTTTAAAAAAA
DNA 2: TTTTTTTAAAAAAAATGGTCCCCTAATAATTCGAAAATTTGGGA
Turning to B1, the binding result is reported as “binds”.

B2: GA2ox4-B mut (dsDNA)
DNA 1: TCCCAAATTTTCGAATTATTAGAAAAAAATTTTTTTTAAAAAAA
DNA 2: TTTTTTTAAAAAAAATTTTTTTCTAATAATTCGAAAATTTGGGA
Turning to B2, the binding result is given as “no binding”.

B3: GA2ox5-A WT (dsDNA)
DNA 1: CAATTGTTTTGTGGGGAAAGGGTGCCCTTTCTTTTTTATTCCAA
DNA 2: TTGGAATAAAAAAGAAAGGGCACCCTTTCCCCACAAAACAATTG
B3: the binding result is recorded as “binds”.

B4: GA2ox5-A mut (dsDNA)
DNA 1: CAATTGTTTTGTGGGGAAAGAATGAACTTTCTTTTTTATTCCAA
DNA 2: TTGGAATAAAAAAGAAAGTTCATTCTTTCCCCACAAAACAATTG
Take B4: the binding result was “no binding”.

B5: CKX7-A WT (dsDNA)
DNA 1: CCCCGACATCTAAAGAGTGGGCCCAAATATCAGATAAATCAAGAACA
DNA 2: TGTTCTTGATTTATCTGATATTTGGGCCCACTCTTTAGATGTCGGGG
On to B5, for which the binding result was “binds”.

B6: CKX7-A mut (dsDNA)
DNA 1: CCCCGACATCTAAAGAGTAAACAAAAATATCAGATAAATCAAGAACA
DNA 2: TGTTCTTGATTTATCTGATATTTTTGTTTACTCTTTAGATGTCGGGG
B6: the binding result is “no binding”.

B7: LOG4-A WT (dsDNA)
DNA 1: AGTAATCCTATTAGAAAAATGGGCCATGGACCTTGCCTTACCTAC
DNA 2: GTAGGTAAGGCAAGGTCCATGGCCCATTTTTCTAATAGGATTACT
Take B7: the binding result is reported as “binds”.

B8: LOG4-A mut (dsDNA)
DNA 1: AGTAATCCTATTAGAAAAATAAAAAATGGACCTTGCCTTACCTAC
DNA 2: GTAGGTAAGGCAAGGTCCATTTTTTATTTTTCTAATAGGATTACT
For B8, the binding result is given as “no binding”.
